Assay results published in the Human Domainome abundance scans (Beltran et al. 2025).

B1: Intersectin-2, residues 1129 to 1183; numbered along this chain, Q9NZM3 (parent)
chain: VCQVIAMYDYAANNEDELSFSKGQLINVMNKDDPDWWQGEINGVTGLFPSNYVKM
B2: Homeobox protein SIX6, residues 134 to 184; numbered along this chain, O95475 (parent)
chain: CFKERTRHLLREWYLQDPYPNPSKKRELAQATGLTPTQVGNWFKNRRQRDR

Variants of: B1
Assay: abundance fitness (aPCA) (normalised: wild type 0, dead -1); higher = more abundant; growth selection in yeast, the domain comes from the species named
Conditions: Homo sapiens

Abundance fitness of substitutions, site by site:
Y10: A -0.66; G -0.761; T -0.865; S -0.427; I -0.494; N -0.249; W -0.037; R -0.063; P -0.913; K -0.144; E -0.853; V -0.455; Q -0.505; H -0.124; F -0.084; M -0.256; D -0.777
V1: M -0.178; K 0.089; P -0.652; L -0.206; N -0.247; I 0.077; S -0.21; A -0.27; E -0.054; D -0.043; T 0.107; R -0.228; Y -0.453; F 0.04; C -0.307; W -0.391
I5: Y -0.062; K -0.173; W -0.056; V -0.015; Q -0.085; P -0.531; C -0.077; E -0.062; G -0.457; M -0.144; H -0.188; L -0.132; R -0.147; S -0.134; D -0.164; N -0.186; F -0.022; T 0.023; A -0.121
Q3: F 0.027; S 0.012; T -0.047; R -0.13; W -0.076; M -0.053; Y -0.029; E 0.081; I -0.006; N -0.169; V -0.042; C -0.066; L -0.134; A -0.07; P -0.116; D -0.19; K 0.002
A11: W -0.117; P -0.069; N -0.016; M -0.053; E 0.025; R -0.01; F -0.055; Q -0.003; S -0.007; G -0.03; V -0.072; H 0.042; Y -0.111; T -0.041; K 0.013; L -0.064; C -0.048; D 0.007
Y8: A -0.002; C -0.011; D -0.197; H -0.162; T -0.122; G -0.063; V -0.045; L -0.005; W -0.052; N 0.011; P -0.787; F 0.09; Q -0.084; E -0.002; K 0.074; R 0.012; M -0.011; S 0.001
A6: W -1.02; Q -0.966; C -0.154; P -0.585; V -0.576; S -0.057; H -0.923; L -1.02; Y -0.927; D -0.93; F -1.03; T 0.026; R -0.883; G -0.163; I -0.988; N -0.928
C2: D -0.041; L -0.223; Q -0.107; T -0.126; N 0.147; Y 0.022; I -0.116; G -0.099; P -0.108; E -0.3; A -0.116; F 0.023; W -0.122; S -0.006; M -0.13
D9: I -0.594; R -0.131; N -0.039; Q -0.133; P -0.098; F -0.364; S -0.069; L -0.571; E -0.117; M -0.177; T -0.084; K -0.189; W -0.383; Y -0.371; H -0.025; A 0.019; G -0.061; C -0.189; V -0.38
A12: H -0.221; M -0.129; E -0.172; D -0.503; I -0.469; L -0.578; G -0.068; Q -0.046; C -0.115; F -0.663; N 0.052; P -0.144; K -0.012
V4: A -0.027; L -0.297; K -0.62; D -0.511; H -0.205; Y 0.032; S -0.064; T -0.079; W -0.079; N -0.688; Q -0.349; G -0.041; E -0.405; R -0.458; I -0.478; F -0.004
M7: N -0.088; W -0.188; D 0.007; K -0.139; G -0.081; C -0.02; Y -0.036; R -0.115; I 0.002; F -0.168; V -0.065; P -0.897; E -0.057; S 0.029; Q -0.049; A -0.078

Variants of: B2
Assay: as above
Conditions: Homo sapiens

Abundance fitness, by site and new letter:
R49: C -0.376; E 0.049; V -0.503; W -0.594; K -0.203; H -0.889; L -0.277; S -0.334; F -0.238; D -0.074; G -0.357; T -0.213; Q 0.143; N -0.287; M -0.489; I -0.482; A -0.278
R51: E -0.094; D -0.25; K -0.133; V -0.545; W -0.832; C -0.691; T -0.529; A -0.353; L -0.431; S -0.646; M -0.499
R47: H -0.762; K -0.861; S -0.845; Y -0.637; T -0.825; I -1.01; D -0.84; A -0.635; N -0.613; L -0.633; M -0.786; W -0.425; F -0.501; V -0.756; G -0.762; C -0.662
N45: R -0.062; S -0.42; W -0.535; I -0.394; F -0.712; M -0.386; G -0.481; V -0.612; H -0.123; K -0.13; D -0.261; E -0.266; Q -0.303; T -0.423; C -0.39; A -0.378; L -0.401
Q48: G -0.237; T -0.411; L -0.522; A -0.315; R 0.515; F -0.526; M -0.169; P -0.795; V -0.315; C -0.125; H 0.11; D -0.221; W -0.079; I -0.035; N 0.04; K 0.266; S -0.092; Y 0.226
K44: S -0.282; L -0.525; T -0.398; I -0.37; A -0.195; C -0.361; M -0.204; V -0.543; Q -0.271; G -0.68; F -0.438; R -0.112; Y -0.604; E -0.009; P -0.957; D -0.57; W -0.634
D50: K -0.474; N -0.693; A -0.383; W -0.592; I -0.995; P -0.862; R -0.777; H -0.605; Y -0.878; L -1.1; Q -0.189; C -0.73; E -0.26; M -0.417; T -0.153; S -0.312; V -0.881; G -0.607; F -0.585
R46: T -0.055; K -0.151; M -0.344; F -0.522; Y -0.505; A -0.17; Q 0.11; L -0.604; H -0.72; N -0.037; V -0.465; C -0.203; I -0.845; S -0.165; E 0.062; D -0.728; W -0.501
F43: Y -1.13; W -0.926
